Reference: the nanobody polyreactivity screen of Harvey et al. (2022)

test: yeast display, Sf9 membrane polyspecificity reagent, FACS + sequencing; frameworks hold sequencing errors
Method in brief: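 Nanobodies came from a synthetic yeast display library in Saccharomyces cerevisiae BJ5465, induced with galactose for 36–48 hours and stained for 1 hour at 4 °C with 10% biotinylated, detergent-solubilized Sf9 membrane reagent. Cells were enriched on streptavidin microbeads and then FACS-sorted, with low and high (top ~1%) gates set on anti-HA fluorescence for expression and streptavidin fluorescence for reagent binding. Each polyreactivity label reflects the gate a clone came from. Genes were amplified by colony PCR, sequenced by MiSeq 2 × 250 and filtered by CDR length.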

Sequence | polyreactivity (PSR sort gate)
QVQLVESGGGLVQAGGSLRLSCAASGSTFQYYAMGGYRQAPGKERELVAGITWRDGNTYYADTVKGRFTISRDNANNTVYLQMNSLKPEDTAVYYCAARRYFVIYYPYDYWGQGTQVTVSS | low polyreactivity
QVQLVESGGGLVQAGGSLRLSCAASGSTFQYYAMGWYRQAPGKDRELVAAIRTGGSTNYAHSVKGRFTISRDNAKNTVYLQMNSLKPDDNAVYYCAKRSLRSYRMNYWGQGTQVTVSS | high polyreactivity
QVQLVESGGGLVQAGGSLRLSCAASGSTFQYYAMGWYRQAPGKERELVAAISYSSGTTYYADSVKGRFTISRDNAKNTVYLQMNSLKPEDTAVYYCARPARYSYPTSTAFDYWGQGTQVTVSS | low polyreactivity
QVQLVESGGGLVQAGGSLRLSCAASGSTFQYYTMGWYRQAPGKERELVAAITRSGGRTYYADSVKGRFTISRDNAKNTVYLQMNSLKPEDTAVYYCAALDSRYSGDDYDSWGQGTQVTVSS | high polyreactivity
QVQLVESGGGLVQAGGSLRLSCAASGSTFRANAMGRYRQAPGKERELVAAINSGGSTYYADSVKGRFTISRDNAKNTVYLQMNSLKPEDTAVYYCNKRYWRSDYWGQGTQVTVSS | high polyreactivity
QVQLVESGGGLVQAGGSLRLSCAASGSTFRANAMGWYRQAPGKESELVADIRFSDGSTYYADSVKGRFTISRDNAKNTVYLQMNSLKPEDTAVYYCAARPSGRGYYLLGYWGQGTQVTVSS | low polyreactivity
QVQLVESGGGLVQAGGSLRLSCAASGSTFRANVMGWYRQAPGKEMELVAAITSGGGSTYYADSVKGRFTISRDNAKNTVYLQMNSLKPEDTAVYYCATRPIQYRRGYDYWGQGTQVTVSS | high polyreactivity
QVQLVESGGGLVQAGGSLRLSCAASGSTFRAYAMGWYRQAPGKEREFVASISWSGGRTYYADSVKGRFTISRDNAKNTVYLQMNSLKPEDTAVYYCAVDLSTHDYDYWGQGTQVTVSS | low polyreactivity
QVQLVESGGGLVQAGGSLRLSCAASGSTFRAYAMGWYRQAPGKERELVAAISRSGGSTYYADSVKGRFTISRDNAKNTVYLQMNSLKPEDTAVYYCNAAYKNYQYRPPNIDGQGDYWGQGTQVTVSS | high polyreactivity
QVQLVESGGGLVQAGGSLRLSCAASGSTFRAYAMRWYRQAPGKETELVAAISSSGGSTYYADSVKGRFTISRDNAKKTVYLQMNSLKPEDTAVYYCAARGWWSRYGYWGQGTQVTVSS | high polyreactivity
QVQLVESGGGLVQAGGSLRLSCAASGSTFRCYAMGWYRQAPGKERELVAAISRSGGSTYYADSVKGRFTISRDNAKNTVYLQMNSLKPEDTAVYYCNARSSKRSSRGYDYWGQGTQVTVSS | high polyreactivity
QVQLVESGGGLVQAGGSLRLSCAASGSTFRDNSMGWYRQAPGKERELVASITKRGTSTYYADSVKGRFTISRDNAKNNVYLHMNSLKPEETSVYYCAVRRYGKTAGYDYWGQGTQVTVSS | low polyreactivity
QVQLVESGGGLVQAGGSLRLSCAASGSTFREYAMGWYRQAPGKERELVAAISSGDSTNYADSVKGRFTISRDNAKNTVYLQMNSLKPEDTAVYYCAADAPGAAAVQNDYWGQGTQVTVSS | low polyreactivity
QVQLVESGGGLVQAGGSLRLSCAASGSTFRFNAMGWYRQAPGKERELVAAITGIGGITYYADSVKGRFTISRDNAKNTVYLQMNSLKPEDTAVYYCNAVAARYSVRNGYSTHYDYWGQGTQVTVSS | high polyreactivity
QVQLVESGGGLVQAGGSLRLSCAASGSTFRFNTMGWYRHAPGKDRELVAAITSGGSTYYADSVKGLFTISRDNAKNTVYLQMNSLKPEDTAVYYCAATWYIRGQCYYYWGQGTQVTVSS | high polyreactivity
QVQLVESGGGLVQAGGSLRLSCAASGSTFRFYAMGWYRPAPGKERELVAVIRSTGSTYYADSVKGRFTISRDNAKNTVYLQMNSLKPEDTAVYYCAAQNAWWSNGRSYDYWGQGTQVTVSS | low polyreactivity
QVQLVESGGGLVQAGGSLRLSCAASGSTFRFYAMGWYRQAPGKERELVAAISKSGGITYYADSVKGRFTISRAHAKNTVYLQMNSLKPEDTSVSYCATVGLLSNFYSRFNYWGQGTPVTVSS | high polyreactivity
